Assay [1] has as its target Clostridium difficile toxin B (whole toxin B) (Clostridium difficile). Briefly: cell-based or functional assay.
For assay [2] the target is unchanged.

Substance “Clostridium difficile toxin B (whole toxin B)” yielded an IC50 (read off the curve) in the assay with MDX1388 of 0.05 µg/mL.
In assay [1], MDX1388 (antibody) had a Mean EC50, neutralization of TcdB on HT-29 cells (xCELLigence) of 125 µg/mL. In assay [2], the Kd stood at 3.84 nM, the koff came out at 0.000139 s⁻¹ and the kon was found to be 36200 M⁻¹ s⁻¹.

These data come from patent publication US20150290319A1.
